The record followed here is paper PMC5581195, “The activation of OsEIL1 on YUC8 transcription and auxin biosynthesis is required for ethylene-inhibited root elongation in rice early seedling development”.

This series has as its target T1, GST-EIL1-N (OsEIL1 N-terminal region) (Oryza sativa (rice), UniProt Q10M41 1-350).
T1 sequence: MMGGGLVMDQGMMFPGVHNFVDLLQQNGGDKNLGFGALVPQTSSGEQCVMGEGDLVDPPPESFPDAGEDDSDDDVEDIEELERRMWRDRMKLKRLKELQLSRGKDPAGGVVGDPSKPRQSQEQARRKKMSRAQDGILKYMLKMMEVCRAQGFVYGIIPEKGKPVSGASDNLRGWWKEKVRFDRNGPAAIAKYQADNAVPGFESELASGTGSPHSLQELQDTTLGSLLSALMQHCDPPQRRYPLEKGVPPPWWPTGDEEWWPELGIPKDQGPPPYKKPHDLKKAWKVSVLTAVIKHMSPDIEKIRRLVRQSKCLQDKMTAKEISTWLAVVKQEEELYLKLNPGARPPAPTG
Description: EMSA; specificity shown by excess unlabeled probe competition; LightShift Chemiluminescent EMSA kit, manufacturer's protocol; 20 min at room temperature; 5% native polyacrylamide gel; buffer, salt and pH not stated. Particulars: protein: recombinant; tags: N-terminal GST (pGEX-6p-1); label: biotin 3' end; blunt. A general note: Mobility shift assays separate free from complexed probe on a gel.

B1: YUC8/REIN7 promoter EBS probe (P1 fragment region) (dsDNA)
DNA 1: CCAAAATTTTTAATGTAAAATTTTAAGTACATTTTTTTCATGTACTAGCTACCTCC
DNA 2: GGAGGTAGCTAGTACATGAAAAAAATGTACTTAAAATTTTACATTAAAAATTTTGG
In the case of B1, the binding result was “binds”.
